According to publication PMC10786891, “Massively parallel profiling of RNA-targeting CRISPR-Cas13d”:

T1: EsCas13d, nuclease-dead (Eubacterium siraeum, UniProt B0MS50, R295A;H300A;R849A;H854A)
T1 sequence: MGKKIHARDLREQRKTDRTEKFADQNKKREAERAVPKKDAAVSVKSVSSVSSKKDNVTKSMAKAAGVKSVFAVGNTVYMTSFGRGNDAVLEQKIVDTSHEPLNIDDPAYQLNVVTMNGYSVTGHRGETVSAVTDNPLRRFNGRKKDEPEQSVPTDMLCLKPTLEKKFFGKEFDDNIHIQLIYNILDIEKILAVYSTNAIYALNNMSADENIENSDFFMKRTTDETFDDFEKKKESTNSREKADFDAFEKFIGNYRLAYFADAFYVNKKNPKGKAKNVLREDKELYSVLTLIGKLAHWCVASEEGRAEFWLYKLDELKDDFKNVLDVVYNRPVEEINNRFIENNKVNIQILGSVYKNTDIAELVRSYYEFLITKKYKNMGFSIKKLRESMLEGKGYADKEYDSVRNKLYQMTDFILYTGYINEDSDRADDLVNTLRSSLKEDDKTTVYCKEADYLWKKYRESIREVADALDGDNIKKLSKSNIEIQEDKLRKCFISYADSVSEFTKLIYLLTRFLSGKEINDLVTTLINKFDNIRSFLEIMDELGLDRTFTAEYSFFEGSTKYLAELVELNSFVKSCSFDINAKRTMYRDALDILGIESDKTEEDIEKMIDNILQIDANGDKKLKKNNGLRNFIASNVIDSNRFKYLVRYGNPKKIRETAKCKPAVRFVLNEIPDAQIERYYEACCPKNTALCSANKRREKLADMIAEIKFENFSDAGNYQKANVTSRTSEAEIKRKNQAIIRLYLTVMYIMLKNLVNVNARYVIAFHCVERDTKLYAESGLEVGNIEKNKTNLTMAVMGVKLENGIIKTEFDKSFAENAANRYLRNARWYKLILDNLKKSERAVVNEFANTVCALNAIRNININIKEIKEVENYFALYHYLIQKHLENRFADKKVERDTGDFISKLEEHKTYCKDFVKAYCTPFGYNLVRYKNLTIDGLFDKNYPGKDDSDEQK

B1: target 1 insC 3' of 17,insG 3' of 1 (mixed)
RNA 1: CACCCGUGCAAAAAUGCAGGGGUCUAAAACUGAGCGGAUAACCUCUCUAUGG
RNA 2: GGGAAUGGAUCCACAUCUACGAAUUCGUACCAUAGCAGAGGUUAUCCGCUCAGCCGAGAUCGGAAGAGCACACGU
B2: target 1 insU 3' of 12,insA 3' of 3 (mixed)
RNA 1: CACCCGUGCAAAAAUGCAGGGGUCUAAAACUGAGCGGAUAACCUCUCUAUGG
RNA 2: GGGAAUGGAUCCACAUCUACGAAUUCGUACCAUAGAGAGGUUUAUCCGCUACACCGAGAUCGGAAGAGCACACGU
B3: target 1 insG 3' of 8,insA 3' of 8 (mixed)
RNA 1: CACCCGUGCAAAAAUGCAGGGGUCUAAAACUGAGCGGAUAACCUCUCUAUGG
RNA 2: GGGAAUGGAUCCACAUCUACGAAUUCGUACCAUAGAGAGGUUAUGACCGCUCACCGAGAUCGGAAGAGCACACGU
B4: target 1 G5C,A14C (mixed)
RNA 1: CACCCGUGCAAAAAUGCAGGGGUCUAAAACUGAGCGGAUAACCUCUCUAUGG
RNA 2: GGGAAUGGAUCCACAUCUACGAAUUCGUACCAUAGAGCGGUUAUCCCCUCACCGAGAUCGGAAGAGCACACGU
B5: target 1 insC 3' of 14,insC 3' of 1 (mixed)
RNA 1: CACCCGUGCAAAAAUGCAGGGGUCUAAAACUGAGCGGAUAACCUCUCUAUGG
RNA 2: GGGAAUGGAUCCACAUCUACGAAUUCGUACCAUAGAGACGGUUAUCCGCUCACCCGAGAUCGGAAGAGCACACGU
B6: target 1 G5U,U11A (mixed)
RNA 1: CACCCGUGCAAAAAUGCAGGGGUCUAAAACUGAGCGGAUAACCUCUCUAUGG
RNA 2: GGGAAUGGAUCCACAUCUACGAAUUCGUACCAUAGAGAGGAUAUCCUCUCACCGAGAUCGGAAGAGCACACGU
B7: target 1 del3 (mixed)
RNA 1: CACCCGUGCAAAAAUGCAGGGGUCUAAAACUGAGCGGAUAACCUCUCUAUGG
RNA 2: GGGAAUGGAUCCACAUCUACGAAUUCGUACCAUAGAGAGGUUAUCCGCCACCGAGAUCGGAAGAGCACACGU
B8: target 1 insC 3' of 14,insG 3' of 1 (mixed)
RNA 1: CACCCGUGCAAAAAUGCAGGGGUCUAAAACUGAGCGGAUAACCUCUCUAUGG
RNA 2: GGGAAUGGAUCCACAUCUACGAAUUCGUACCAUAGAGACGGUUAUCCGCUCAGCCGAGAUCGGAAGAGCACACGU
B9: target 1 G17A,U19G (mixed)
RNA 1: CACCCGUGCAAAAAUGCAGGGGUCUAAAACUGAGCGGAUAACCUCUCUAUGG
RNA 2: GGGAAUGGAUCCACAUCUACGAAUUCGUACCAGAAAGAGGUUAUCCGCUCACCGAGAUCGGAAGAGCACACGU
B10: target 1 U3G,G17A (mixed)
RNA 1: CACCCGUGCAAAAAUGCAGGGGUCUAAAACUGAGCGGAUAACCUCUCUAUGG
RNA 2: GGGAAUGGAUCCACAUCUACGAAUUCGUACCAUAAAGAGGUUAUCCGCGCACCGAGAUCGGAAGAGCACACGU
B11: target 1 insC 3' of 14,insU 3' of 1 (mixed)
RNA 1: CACCCGUGCAAAAAUGCAGGGGUCUAAAACUGAGCGGAUAACCUCUCUAUGG
RNA 2: GGGAAUGGAUCCACAUCUACGAAUUCGUACCAUAGAGACGGUUAUCCGCUCAUCCGAGAUCGGAAGAGCACACGU
B12: target 1 insC 3' of 8,insU 3' of 4 (mixed)
RNA 1: CACCCGUGCAAAAAUGCAGGGGUCUAAAACUGAGCGGAUAACCUCUCUAUGG
RNA 2: GGGAAUGGAUCCACAUCUACGAAUUCGUACCAUAGAGAGGUUAUCCCGCUUCACCGAGAUCGGAAGAGCACACGU
B13: target 1 A16C,G17C (mixed)
RNA 1: CACCCGUGCAAAAAUGCAGGGGUCUAAAACUGAGCGGAUAACCUCUCUAUGG
RNA 2: GGGAAUGGAUCCACAUCUACGAAUUCGUACCAUACCGAGGUUAUCCGCUCACCGAGAUCGGAAGAGCACACGU
B14: target 1 A1G,C4G (mixed)
RNA 1: CACCCGUGCAAAAAUGCAGGGGUCUAAAACUGAGCGGAUAACCUCUCUAUGG
RNA 2: GGGAAUGGAUCCACAUCUACGAAUUCGUACCAUAGAGAGGUUAUCCGGUCGCCGAGAUCGGAAGAGCACACGU
B15: target 1 C6A,A18G (mixed)
RNA 1: CACCCGUGCAAAAAUGCAGGGGUCUAAAACUGAGCGGAUAACCUCUCUAUGG
RNA 2: GGGAAUGGAUCCACAUCUACGAAUUCGUACCAUGGAGAGGUUAUCAGCUCACCGAGAUCGGAAGAGCACACGU
B16: target 1 C2U,U8G (mixed)
RNA 1: CACCCGUGCAAAAAUGCAGGGGUCUAAAACUGAGCGGAUAACCUCUCUAUGG
RNA 2: GGGAAUGGAUCCACAUCUACGAAUUCGUACCAUAGAGAGGUUAGCCGCUUACCGAGAUCGGAAGAGCACACGU
B17: target 1 U8C,U19A (mixed)
RNA 1: CACCCGUGCAAAAAUGCAGGGGUCUAAAACUGAGCGGAUAACCUCUCUAUGG
RNA 2: GGGAAUGGAUCCACAUCUACGAAUUCGUACCAAAGAGAGGUUACCCGCUCACCGAGAUCGGAAGAGCACACGU
B18: target 1 del15,del22 (mixed)
RNA 1: CACCCGUGCAAAAAUGCAGGGGUCUAAAACUGAGCGGAUAACCUCUCUAUGG
RNA 2: GGGAAUGGAUCCACAUCUACGAAUUCGUACAUAGAAGGUUAUCCGCUCACCGAGAUCGGAAGAGCACACGU
B19: target 1 U11G,C21U (mixed)
RNA 1: CACCCGUGCAAAAAUGCAGGGGUCUAAAACUGAGCGGAUAACCUCUCUAUGG
RNA 2: GGGAAUGGAUCCACAUCUACGAAUUCGUACUAUAGAGAGGGUAUCCGCUCACCGAGAUCGGAAGAGCACACGU
B20: target 1 A9C,U10C (mixed)
RNA 1: CACCCGUGCAAAAAUGCAGGGGUCUAAAACUGAGCGGAUAACCUCUCUAUGG
RNA 2: GGGAAUGGAUCCACAUCUACGAAUUCGUACCAUAGAGAGGUCCUCCGCUCACCGAGAUCGGAAGAGCACACGU
B21: target 1 insG 3' of 22,insA 3' of 11 (mixed)
RNA 1: CACCCGUGCAAAAAUGCAGGGGUCUAAAACUGAGCGGAUAACCUCUCUAUGG
RNA 2: GGGAAUGGAUCCACAUCUACGAAUUCGUACGCAUAGAGAGGUAUAUCCGCUCACCGAGAUCGGAAGAGCACACGU
B22: target 1 insU 3' of 13,insC 3' of 11 (mixed)
RNA 1: CACCCGUGCAAAAAUGCAGGGGUCUAAAACUGAGCGGAUAACCUCUCUAUGG
RNA 2: GGGAAUGGAUCCACAUCUACGAAUUCGUACCAUAGAGAGUGUCUAUCCGCUCACCGAGAUCGGAAGAGCACACGU
B23: target 1 C4G (mixed)
RNA 1: CACCCGUGCAAAAAUGCAGGGGUCUAAAACUGAGCGGAUAACCUCUCUAUGG
RNA 2: GGGAAUGGAUCCACAUCUACGAAUUCGUACCAUAGAGAGGUUAUCCGGUCACCGAGAUCGGAAGAGCACACGU
B24: target 1 A1C,C4G (mixed)
RNA 1: CACCCGUGCAAAAAUGCAGGGGUCUAAAACUGAGCGGAUAACCUCUCUAUGG
RNA 2: GGGAAUGGAUCCACAUCUACGAAUUCGUACCAUAGAGAGGUUAUCCGGUCCCCGAGAUCGGAAGAGCACACGU
B25: target 1 A1C,C6G (mixed)
RNA 1: CACCCGUGCAAAAAUGCAGGGGUCUAAAACUGAGCGGAUAACCUCUCUAUGG
RNA 2: GGGAAUGGAUCCACAUCUACGAAUUCGUACCAUAGAGAGGUUAUCGGCUCCCCGAGAUCGGAAGAGCACACGU
B26: target 1 C2A,U3G (mixed)
RNA 1: CACCCGUGCAAAAAUGCAGGGGUCUAAAACUGAGCGGAUAACCUCUCUAUGG
RNA 2: GGGAAUGGAUCCACAUCUACGAAUUCGUACCAUAGAGAGGUUAUCCGCGAACCGAGAUCGGAAGAGCACACGU
B27: target 1 insU 3' of 21,insA 3' of 8 (mixed)
RNA 1: CACCCGUGCAAAAAUGCAGGGGUCUAAAACUGAGCGGAUAACCUCUCUAUGG
RNA 2: GGGAAUGGAUCCACAUCUACGAAUUCGUACCUAUAGAGAGGUUAUACCGCUCACCGAGAUCGGAAGAGCACACGU
B28: target 1 U8G,U10G (mixed)
RNA 1: CACCCGUGCAAAAAUGCAGGGGUCUAAAACUGAGCGGAUAACCUCUCUAUGG
RNA 2: GGGAAUGGAUCCACAUCUACGAAUUCGUACCAUAGAGAGGUGAGCCGCUCACCGAGAUCGGAAGAGCACACGU

What follows are binders tested against T1, EsCas13d, nuclease-dead (assay: crRNA (strand 1, pre-loaded); Mg2+; 40 mM Tris-HCl pH 7.5, 150 mM NaCl, 6 mM MgCl2, 1 mM DTT, 0.1% Tween-20, 0.2 mg/ml BSA; 25 C; 10 min per concentration, then washed). Conditions: tags: His6-TwinStrep-SUMO cleaved; N-terminal SNAP kept (SNAP-Surface 488); label: 3' end held by stalled T7 RNA polymerase.

In order of rising Kd:
1. B14  5.2 ± 0.34 nM
2. B23  5.3 ± 0.8 nM
3. B2  5.8 ± 0.4 nM
4. B26  8.6 ± 0.7 nM
5. B19  9.4 ± 0.5 nM
6. B24  10.7 ± 1 nM
7. B25  12.1 ± 1.1 nM
8. B12  12.2 ± 1 nM
9. B4  14.5 ± 1.5 nM
10. B20  15.1 ± 1.5 nM
11. B16  17.1 ± 0.9 nM
12. B28  20 ± 1.1 nM
13. B3  27.2 ± 1.4 nM
14. B7  28 ± 5 nM
15. B22  29 ± 7 nM
16. B21  33 ± 4 nM
17. B10  37 ± 4 nM
18. B1  44 ± 16 nM
19. B27  48 ± 4 nM
20. B5  50 ± 11 nM
21. B8  50 ± 12 nM
22. B11  ~50 nM
23. B9  51 ± 6 nM
24. B18  54 ± 23 nM
25. B17  59 ± 9 nM
26. B6  ~60 nM
27. B15  98 ± 20 nM
28. B13  ~100 nM
